We go through eight molecules from article PMC4252739 (Cell host & microbe, 2014).

Bounds are passed on as bounds.

In data set [1] the target is HIV-1 CA A14C/E45C cross-linked tubular assemblies (HIV-1). The data set can be described thus: co-sedimentation.
Data set [2] concerns the molecule itself. Nature of the data set: SEC.
Data set [3] deals with the molecule itself. The data set can be described thus: SEC. The source holds these as a separate data set.

One may read the stoichiometry N as a count of units in the complex or per binding partner.

B1: MxB_(84YRGK) (6xHis-MxB residues 84-715 with YRGK487-490AAAA) (domain or fragment)
chain: GPENNLYSQYEQKVRPCIDLIDSLRALGVEQDLALPAIAVIGDQSSGKSSVLEALSGVALPRGSGIVTRCPLVLKLKKQPCEAWAGRISYRNTELELQDPGQVEKEIHKAQNVMAGNGRGISHELISLEITSPEVPDLTIIDLPGITRVAVDNQPRDIGLQIKALIKKYIQRQQTINLVVVPCNVDIATTEALSMAHEVDPEGDRTIGILTKPDLMDRGTEKSVMNVVRNLTYPLKKGYMIVKCRGQQEITNRLSLAEATKKEITFFQTHPYFRVLLEEGSATVPRLAERLTTELIMHIQKSLPLLEGQIRESHQKATEELRRCGADIPSQEADKMFFLIEKIKMFNQDIEKLVEGEEVVRENETRLYNKIREDFKNWVGILATNTQKVKNIIHEEVEKYEKQAAAAELLGFVNYKTFEIIVHQYIQQLVEPALSMLQKAMEIIQQAFINVAKKHFGEFFNLNQTVQSTIEDIKVKHTAKAENMIQLQFRMEQMVFCQDQIYSVVLKKVREEIFNPLGTPSQNMKLNSHFPSNESSVSSFTEIGIHLNAYFLETSKRLANQIPFIIQYFMLRENGDSLQKAMMQILQEKNRYSWLLQEQSETATKRRILKERIYRLTQARHALCQFSSKEIH
B1 had a percent co-sedimented with CA in data set [1] of 9%.

B2: MxB_(84YRGK/M574D) (domain or fragment, UniProt P20592 84-715, looked up)
chain: GPENNLYSQYEQKVRPCIDLIDSLRALGVEQDLALPAIAVIGDQSSGKSSVLEALSGVALPRGSGIVTRCPLVLKLKKQPCEAWAGRISYRNTELELQDPGQVEKEIHKAQNVMAGNGRGISHELISLEITSPEVPDLTIIDLPGITRVAVDNQPRDIGLQIKALIKKYIQRQQTINLVVVPCNVDIATTEALSMAHEVDPEGDRTIGILTKPDLMDRGTEKSVMNVVRNLTYPLKKGYMIVKCRGQQEITNRLSLAEATKKEITFFQTHPYFRVLLEEGSATVPRLAERLTTELIMHIQKSLPLLEGQIRESHQKATEELRRCGADIPSQEADKMFFLIEKIKMFNQDIEKLVEGEEVVRENETRLYNKIREDFKNWVGILATNTQKVKNIIHEEVEKYEKQAAAAELLGFVNYKTFEIIVHQYIQQLVEPALSMLQKAMEIIQQAFINVAKKHFGEFFNLNQTVQSTIEDIKVKHTAKAENMIQLQFRDEQMVFCQDQIYSVVLKKVREEIFNPLGTPSQNMKLNSHFPSNESSVSSFTEIGIHLNAYFLETSKRLANQIPFIIQYFMLRENGDSLQKAMMQILQEKNRYSWLLQEQSETATKRRILKERIYRLTQARHALCQFSSKEIH
Turning to B2, the binding result in data set [2] was “binds”.

B3: MxB-HA K663D (natural protein)
chain: MSKAHKPWPYRRRSQFSSRKYLKKEMNSFQQQPPPFGTVPPQMMFPPNWQGAEKDAAFLAKDFNFLTLNNQPPPGNRSQPRAMGPENNLYSQYEQKVRPCIDLIDSLRALGVEQDLALPAIAVIGDQSSGKSSVLEALSGVALPRGSGIVTRCPLVLKLKKQPCEAWAGRISYRNTELELQDPGQVEKEIHKAQNVMAGNGRGISHELISLEITSPEVPDLTIIDLPGITRVAVDNQPRDIGLQIKALIKKYIQRQQTINLVVVPCNVDIATTEALSMAHEVDPEGDRTIGILTKPDLMDRGTEKSVMNVVRNLTYPLKKGYMIVKCRGQQEITNRLSLAEATKKEITFFQTHPYFRVLLEEGSATVPRLAERLTTELIMHIQKSLPLLEGQIRESHQKATEELRRCGADIPSQEADKMFFLIEKIKMFNQDIEKLVEGEEVVRENETRLYNKIREDFKNWVGILATNTQKVKNIIHEEVEKYEKQYRGKELLGFVNYKTFEIIVHQYIQQLVEPALSMLQKAMEIIQQAFINVAKKHFGEFFNLNQTVQSTIEDIKVKHTAKAENMIQLQFRMEQMVFCQDQIYSVVLKKVREEIFNPLGTPSQNMKLNSHFPSNESSVSSFTEIGIHLNAYFLETSKRLANQIPFIIQYFMLRENGDSLQDAMMQILQEKNRYSWLLQEQSETATKRRILKERIYRLTQARHALCQFSSKEIH
For the molecule B3, the binding specificity (percent of input co-pelleted, background corrected) in data set [1] was 27%.

B4: MxB-HA E681A (natural protein)
chain: MSKAHKPWPYRRRSQFSSRKYLKKEMNSFQQQPPPFGTVPPQMMFPPNWQGAEKDAAFLAKDFNFLTLNNQPPPGNRSQPRAMGPENNLYSQYEQKVRPCIDLIDSLRALGVEQDLALPAIAVIGDQSSGKSSVLEALSGVALPRGSGIVTRCPLVLKLKKQPCEAWAGRISYRNTELELQDPGQVEKEIHKAQNVMAGNGRGISHELISLEITSPEVPDLTIIDLPGITRVAVDNQPRDIGLQIKALIKKYIQRQQTINLVVVPCNVDIATTEALSMAHEVDPEGDRTIGILTKPDLMDRGTEKSVMNVVRNLTYPLKKGYMIVKCRGQQEITNRLSLAEATKKEITFFQTHPYFRVLLEEGSATVPRLAERLTTELIMHIQKSLPLLEGQIRESHQKATEELRRCGADIPSQEADKMFFLIEKIKMFNQDIEKLVEGEEVVRENETRLYNKIREDFKNWVGILATNTQKVKNIIHEEVEKYEKQYRGKELLGFVNYKTFEIIVHQYIQQLVEPALSMLQKAMEIIQQAFINVAKKHFGEFFNLNQTVQSTIEDIKVKHTAKAENMIQLQFRMEQMVFCQDQIYSVVLKKVREEIFNPLGTPSQNMKLNSHFPSNESSVSSFTEIGIHLNAYFLETSKRLANQIPFIIQYFMLRENGDSLQKAMMQILQEKNRYSWLLQAQSETATKRRILKERIYRLTQARHALCQFSSKEIH
B4 yielded a binding specificity (percent of input co-pelleted, background corrected) in data set [1] of 9.8%.

B5: MxB-HA Y651D (natural protein)
chain: MSKAHKPWPYRRRSQFSSRKYLKKEMNSFQQQPPPFGTVPPQMMFPPNWQGAEKDAAFLAKDFNFLTLNNQPPPGNRSQPRAMGPENNLYSQYEQKVRPCIDLIDSLRALGVEQDLALPAIAVIGDQSSGKSSVLEALSGVALPRGSGIVTRCPLVLKLKKQPCEAWAGRISYRNTELELQDPGQVEKEIHKAQNVMAGNGRGISHELISLEITSPEVPDLTIIDLPGITRVAVDNQPRDIGLQIKALIKKYIQRQQTINLVVVPCNVDIATTEALSMAHEVDPEGDRTIGILTKPDLMDRGTEKSVMNVVRNLTYPLKKGYMIVKCRGQQEITNRLSLAEATKKEITFFQTHPYFRVLLEEGSATVPRLAERLTTELIMHIQKSLPLLEGQIRESHQKATEELRRCGADIPSQEADKMFFLIEKIKMFNQDIEKLVEGEEVVRENETRLYNKIREDFKNWVGILATNTQKVKNIIHEEVEKYEKQYRGKELLGFVNYKTFEIIVHQYIQQLVEPALSMLQKAMEIIQQAFINVAKKHFGEFFNLNQTVQSTIEDIKVKHTAKAENMIQLQFRMEQMVFCQDQIYSVVLKKVREEIFNPLGTPSQNMKLNSHFPSNESSVSSFTEIGIHLNAYFLETSKRLANQIPFIIQDFMLRENGDSLQKAMMQILQEKNRYSWLLQEQSETATKRRILKERIYRLTQARHALCQFSSKEIH
Regarding B5, in data set [1], the binding specificity (percent of input co-pelleted, background corrected) was less than 0.1%.

B6: MBP-MxB_(1-715 IK/DD) (natural protein, UniProt P20592 1-715, looked up)
chain: MSKAHKPWPYRRRSQFSSRKYLKKEMNSFQQQPPPFGTVPPQMMFPPNWQGAEKDAAFLAKDFNFLTLNNQPPPGNRSQPRAMGPENNLYSQYEQKVRPCIDLIDSLRALGVEQDLALPAIAVIGDQSSGKSSVLEALSGVALPRGSGIVTRCPLVLKLKKQPCEAWAGRISYRNTELELQDPGQVEKEIHKAQNVMAGNGRGISHELISLEITSPEVPDLTIIDLPGITRVAVDNQPRDIGLQIKALIKKYIQRQQTINLVVVPCNVDIATTEALSMAHEVDPEGDRTIGILTKPDLMDRGTEKSVMNVVRNLTYPLKKGYMIVKCRGQQEITNRLSLAEATKKEITFFQTHPYFRVLLEEGSATVPRLAERLTTELIMHIQKSLPLLEGQIRESHQKATEELRRCGADIPSQEADKMFFLDEKIKMFNQDIEKLVEGEEVVRENETRLYNKIREDFKNWVGILATNTQKVKNIIHEEVEKYEKQYRGKELLGFVNYKTFEIIVHQYIQQLVEPALSMLQKAMEIIQQAFINVAKKHFGEFFNLNQTVQSTIEDIKVKHTAKAENMIQLQFRMEQMVFCQDQIYSVVLKKVREEIFNPLGTPSQNMKLNSHFPSNESSVSSFTEIGIHLNAYFLETSKRLANQIPFIIQYFMLRENGDSLQDAMMQILQEKNRYSWLLQEQSETATKRRILKERIYRLTQARHALCQFSSKEIH
For B6, the “stoichiometry N” value in data set [3] turned out to be 2. For the same molecule, the binding specificity (percent of input co-pelleted, background corrected) in data set [1] was 40%.

B7: MxB-HA M666D (natural protein)
chain: MSKAHKPWPYRRRSQFSSRKYLKKEMNSFQQQPPPFGTVPPQMMFPPNWQGAEKDAAFLAKDFNFLTLNNQPPPGNRSQPRAMGPENNLYSQYEQKVRPCIDLIDSLRALGVEQDLALPAIAVIGDQSSGKSSVLEALSGVALPRGSGIVTRCPLVLKLKKQPCEAWAGRISYRNTELELQDPGQVEKEIHKAQNVMAGNGRGISHELISLEITSPEVPDLTIIDLPGITRVAVDNQPRDIGLQIKALIKKYIQRQQTINLVVVPCNVDIATTEALSMAHEVDPEGDRTIGILTKPDLMDRGTEKSVMNVVRNLTYPLKKGYMIVKCRGQQEITNRLSLAEATKKEITFFQTHPYFRVLLEEGSATVPRLAERLTTELIMHIQKSLPLLEGQIRESHQKATEELRRCGADIPSQEADKMFFLIEKIKMFNQDIEKLVEGEEVVRENETRLYNKIREDFKNWVGILATNTQKVKNIIHEEVEKYEKQYRGKELLGFVNYKTFEIIVHQYIQQLVEPALSMLQKAMEIIQQAFINVAKKHFGEFFNLNQTVQSTIEDIKVKHTAKAENMIQLQFRMEQMVFCQDQIYSVVLKKVREEIFNPLGTPSQNMKLNSHFPSNESSVSSFTEIGIHLNAYFLETSKRLANQIPFIIQYFMLRENGDSLQKAMDQILQEKNRYSWLLQEQSETATKRRILKERIYRLTQARHALCQFSSKEIH
On to B7, for which the binding specificity (percent of input co-pelleted, background corrected) in data set [1] is 26%.

B8: MBP-MxB_(1-715 IKM/DDD) (natural protein, UniProt P20592 1-715, looked up)
chain: MSKAHKPWPYRRRSQFSSRKYLKKEMNSFQQQPPPFGTVPPQMMFPPNWQGAEKDAAFLAKDFNFLTLNNQPPPGNRSQPRAMGPENNLYSQYEQKVRPCIDLIDSLRALGVEQDLALPAIAVIGDQSSGKSSVLEALSGVALPRGSGIVTRCPLVLKLKKQPCEAWAGRISYRNTELELQDPGQVEKEIHKAQNVMAGNGRGISHELISLEITSPEVPDLTIIDLPGITRVAVDNQPRDIGLQIKALIKKYIQRQQTINLVVVPCNVDIATTEALSMAHEVDPEGDRTIGILTKPDLMDRGTEKSVMNVVRNLTYPLKKGYMIVKCRGQQEITNRLSLAEATKKEITFFQTHPYFRVLLEEGSATVPRLAERLTTELIMHIQKSLPLLEGQIRESHQKATEELRRCGADIPSQEADKMFFLDEKIKMFNQDIEKLVEGEEVVRENETRLYNKIREDFKNWVGILATNTQKVKNIIHEEVEKYEKQYRGKELLGFVNYKTFEIIVHQYIQQLVEPALSMLQKAMEIIQQAFINVAKKHFGEFFNLNQTVQSTIEDIKVKHTAKAENMIQLQFRMEQMVFCQDQIYSVVLKKVREEIFNPLGTPSQNMKLNSHFPSNESSVSSFTEIGIHLNAYFLETSKRLANQIPFIIQYFMLRENGDSLQDAMDQILQEKNRYSWLLQEQSETATKRRILKERIYRLTQARHALCQFSSKEIH
In the case of B8, the “stoichiometry N” value in data set [3] came to 2.
